Experiment: label from the status in PepcDB records
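Further: failed if final PepcDB status was selected cloned or expressed and not failed if soluble or beyond.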

With “MYKLVLIRHGESTWNKENRFTGWVDVDLTEQGNREARQAGQLLKEAGYTFDIAYTSVLKRAIRTLWHVQDQMDLMYVPVVHSWRLNERHYGALSGLNKAETAAKYGDEQVLVWRRSYDTPPPALEPGDERAPYADPRYAKVPREQLPLTECLKDTVARVLPLWNESIAPAVKAGKQVLIAAHGNSLRALIKYLDGISDADIVGLNIPNGVPLVYELDESLTPIRHYYLGDQEAIAKAQAAVAQQGKSAA” the protein production was “not failed”.

For “MAFAYPKLSEPDTKGEYADGKYKTEGTATEDYTERFQEEIQKVADDNFPGKKNVHLPWKETKEGDIAFIFKNPKKKPILTDSRGKPLKEGTVIRGGSKIRIAGVIAAWEKGAKRGVSLWPDAVRVIKLSEGLEHHHHHH”, the protein production was “failed”.

In the case of “HLHLRVKLLDNTMEIFDIEPKCDGQVLLTQVWKRLNLVECDYFGMEFQNTQSYWIWLEPMKPIIRQIRRPKNVVLRLAVK”, the protein production is reported as “failed”.

For “MYSKIEGSIITARFDKETDFFTDLVDLCNKYEVKSGTVLWAIGMLKEFQIGYWNGNDYEKETFRERLELVSLHGSIAENDPRFHIHAAGARGNHGIVGGHLFSAKVDPLVEIQIMKITGFSMSRELDNSDGLYKLVIKLEHHHHHH”, the protein production was “failed”.

In the case of “MDKMTSSKHYKESMTLLFEGSLRAIPFNIILATLLALDLVYSDVPALIIGAWFFGIVFISLVRSYFCWKIIKRGVEKNRIQATLIEFFLLTFVTGSIWGACYFITLPYVNDLHEFIIILVFGGMCAGAIASLSIYLPAYYAYVFPMLLPVIVYNYALLDVDRTMLATMFLIFIAMLIISAKINHRLLNENFRLFNEKELLINELKVMSITDSLSGLYNRRYFDNIFPQEFNRARRNQYFLSLVSIDIDNFKLINDNLGHPFGDKVLISIADLLKKIFRRSNDILFRLGGDEFAIIIANQPIKETISICETIKNPFKTENLNHTYDSNEQLFMSHVTLSIGIVYIHFESSASIEHAITAADKALYQAKKKGKNQIVVKKLL”, the protein production is reported as “failed”.

In the case of “MDVFSEILNGIGRLLLQPALYVGIILVIIAGFNRVKWERKSFSISIYSPWLELKNFFGVSLLFGLVLSIITTLIGFSVMIEWIAIFNAVACFLLIVGMFRLSSTAFTIGITSLIFYFCYYFDVNLSPFTNLEFTYDAIFIDNFMISMTFLLAILLFVEAFLIQYTSAKNPSPSLRKSKRGKLVGSFQLRKLWFVPLVVFIPGDVFTKIFEWWPVFTIGSESYSLIILPLFIGFQQQVQAQLPEEASKKIAVQVTTLATIIAVAGLIGIVMPVLTLFAFMFAVIGRFWISYRHYRSEQLLPKKFGPQPDGLVVLGARESTPSTRLNLKAGEKITEVNGQKVHNREELYEALNLNRAFCKLKVIDNAGEPRFEQTALYENESFELGLLLVEPR”, the protein production is reported as “failed”.

For “MGFEVRRRLSVADTVTLFNAVVGFVAGAIAFTDPHLAARLILLAVIADAIDGIVARNGDSSAVGPLLDSVTDVVSFGATPSLFLYVLLTDAYGGIESAHPAVFVGLALLASAYVVCSIVRTAFYSTYFDSPDERPGMPNTLGSIIIATAYLSGITNPLVLSVGALGLSLAMIAPFDYPKPGPKHAVPMGVVQAVAVVAPAALFRAGPRAMLAIALLFFALGPWFYPGE”, the protein production was “failed”.

For “MPNNVKITSSHRVLMIALLAAAFACYLLVEPYINSIVMAFIISLLMFPVHEWFERKMPKHKNSASLLTCVVLTFIIVIPLLFVFAAIVQQGSVFSQNTYKWVTNGGIQDIFQHPWVIKGLSIVNEYLPFDKIEPKAIAEKIGQFATTFGSNLVAISAKILGDATNFLMDFFLMLFVLFFLLRDHDKIISAIRHILPLSRSQEDRILTEIEQVSKSAVMGSFLTAIAQGLAGGIGMWLAGFPGLFWGTMMGFASFIPVVGTALIWIPAAAYLFLTGDMTWAIFLTAWSVVIVGSIDNLLRPLLMQGSAGMNTLMIFFSLLGGLHLFGLIGLIYGPLIFAVTMVLFNIYEEEFKDFLNQQDNS”, the protein production was “failed”.

In the case of “MDDEGLPRFAGVVYDQEEGIDALVGDFVEGLLARKLRVGGLLQGREPDAEGVTRTVVRVIGKARRIVISQNLGRHSTACSIDSAAIAEAAVALRQALEERPALIVGNRFGHLELEGAGMSEEMLDILASGTPFLIPVARRFEEGWRRFTGDMGDLLDPRPAALTAWFEALAPVTALEHHHHHH”, the protein production is reported as “failed”.

In the case of “MKITRQIFIYFSFLMAVALFFSCKTTEKAVKSPVTEETKKAEKTGKKSPREEFNDKLTHLSKKGDLEGILKLIDESDPELTKDFKIQYLKLSILISMRKTKEAETFADELSKAYPNNTEILYAQVMLAQAENNTQKKNQYLKKILAINPKDSRALTEQGLDFYSAKKYNDARRKFIEAYKADPKCTEALIGLGRINYLEGKLDQAEANLTAVLEQEPNNSTALAELARIKSETNRMYQALQDINRAAELEPNNPSHWNDIGSYNLTIGRKEEAKKAYDKVIELTPDSYVAYIYRAGINDELGYKEDALADYIKVCNLYPPYYFALEGAGILLWEKGDWLNAGTAFLKALNKAPGSYQYALLYAISLYKQNKKPDAKKFMQNYLKSINRTEKENEYFLCRLFIDFAGDSELINRATAETDMVKKGRLFFYLGEFYNLTKKYTLAEKCYVQVMSIENPAFFEYRFAKKAMDEFNSSNGK”, the protein production is reported as “failed”.

With “MTMDNFSIRPMKRSELDVVIDWAAIEGWNPGIYDAECFYQADQCGFFVGELNNELVASISAVAYSQHFAVIGFYIVKEQFRGRGFGMKMWRTAMAYLGSERNISLDGVIAQQENYKKSGFQIAYRHIRYQV” the protein production was “failed”.

With “MTKIAILGANGRLGRVVAKAFIDAGFDVRTVTRTGKVPAELDGATAVAGDALDRQSLISATEGVDIIFNGLNPIYTDWGKCLPMAENVMAACHANNALHLFPGTVYNYGSPMPAVITEDTPFHPTTEKGRIRCAMEELFRREADAGRVRTILLRAGDFFGGTGSGSWFDLVVAAKMSKGVYTAPGPVDLVHEWAYLPDFAVGFVALARNLDRLGSYEALNFPGHAVTDLEIKAAAEKALGRPLKMTSMPWWVLRAGSPFVAMWREIVSMSYLRFEPHQLASTRLEGIIGEIPHTPLDQAVAQALEDIGIATVKGMKAA” the protein production was “failed”.

In the case of “MKEALKKYNLPIVFVITYVFGCVFAMLCQNTAGEVIMNLLIFALIVLVIYAIIFNYVMYSKMSFGQNFLYILFSSIIYIFGLIFVMILSAVIGDSINNSNDDFGFLLMMFGTSFTMGIFFAYLIPIVPSAIVKLLCGHEKK”, the protein production is reported as “failed”.

With “QYDPYKNPESAQTRRNTVLQQMYQDKNISKKEYDQAVATPVTDGLKELKQKSTYPKYMDNYLKQVISEVKQKTGKDIFTAGL” the protein production was “failed”.

With “MNATLIDCCDPQKPSRVLFHFLILDAPSPSNLPTYIKELQHRGVRHLVRVCGPTYDATLVKSRGIDVHSWPFDDGAPPTRAVLDSWLKLLDTELARQQEDPSVPPPTIGVHCVAGLGRAPILVALALVEYGNVSALDAIALIREKRKGAINQTQMHWITKYKR” the protein production was “not failed”.

In the case of “MSLSYVKEGLAVLEDGRLIYITPEEFRQLLQGDAILAVYSKTCPHCHRDWPQLIQASKEVDVPIVMFIWGSLIGERELSAARLEMNKAGVEGTPTLVFYKEGRIVDKLVGATPWSLKVEKAREIYGGEGHHHHHH”, the protein production is reported as “not failed”.

In the case of “MEVLKDFLLFYGGLFAITNPIGAVPVFIAVTRNLSPEKRKEIARKTSTTVMVTLLVFALVGEWIFKFFGASTDAFSIAGGIILFRMSLEMLSGKLSSVKISEEEEHISEEAVTLEEVAIIPLAIPLLSGPGAITTTMLYMAKSSTMIEKSIVLLVVVAIGITVWIILSAANRIHQKLGTIGIKVMTRMMGLILASMAVQMVINGVKGAFNI”, the protein production is reported as “failed”.

For “MDYPVWQLWGINGGLLVAIISVLHVFVAQFAVGGGFLLVHAATRAERAGSAEATFWVKRFTRFFLLLSMVFGGVSGVGIWVIISLISPAATSLLVHRFVYAWATEWVFFLGEIVALLVYYYGFGKMRFEDHRNVGLLYGLFAYLSLFMINGIITFMLTPGAWMQTQGFWDGFFNPTFWPSLLFRSALCAMLSGLFGLVWASLIDDERARELMTGVTRLWALVPIPFMAVGAWWYLGALPAPQLEMVLRRTADIRPFLEAFPWVLAALMVGGLAFFTRLPSGARVPVAALLLVLGLCQVGTFEWVRETGRRPWIVHGVIWSNGITPEAGAKSDLEGMLKVARWSGVKQVAEANMHEAGRELWQVQCANCHGLGAPMIDILPRIANRPLTGVEALITGQGALQGYMPPFVGTPAERRALATYLVNERDARRH”, the protein production was “failed”.

For “MTRRVIALAGGATFKDIVRTMETQLISALPVIDSGSHVIGVVSEADVLRKEEFRDSDQLRGPRSRPPGALVKARAVTAEDLMTAPAVTVHPKAPVARAARLMARRRVKRLPVVDDEGVLQGIVSRADLLRVFLRSDPDIAEEVRREIVGGRFPEGLGSVRVEVHEGVVTLTGRVPDTSLVPLAERLVRSVEGVVDVRCVLTGPRHRMTGESEKAGAAAHRPGP”, the protein production was “failed”.

For “MNKRAREWVSVGITWVQDVIYVALGILLTLACAVLLLHGGVNLVGALGRDLDLQVIVQLLDRILLAMMIVELLYTVKVSFRDHLLVPEPFLLVALIAAIRRILVITAEFGAQAPSGDEQFRHVMSELGLLTVLILVLVGSVVILRRRDSAEAPR”, the protein production was “failed”.

In the case of “MHIAILGCTSQIAKDLIRSIYVYSQHDLILFGRTPQQTQSWLAENGITSRCSVNQYEEYPNIDHDVVINFVGIGDPSKAAAMGGSIFDITLHYDELVLNELKKYPDRRYLFLSSGAAYGSSFLEPADADTPSTININNLLPQEYYSVAKLHAECRHRSLKEYAIVDLRVFNVFSRTQDLEARFFITDIVRSIHSGTELITSSDMIYRDFMHPKDFYQLVERVLNAPPMNISLDCYSRQPVDKTTLLDEMKKTFGLSYRVKESNMSINATGIKPCYYSKNKRAAEFGYLPEYSSLETIIEETNAILGLQKTVLEHHHHHH”, the protein production is reported as “not failed”.

With “ELCNALADKISLKDRFGFSLYIALFDKVSSLGSGSDHVMDAISQCEQYAKEQGAQERNAPWRLFFRKEVFTPWHSPSEDNVATNLIYQQVVRGVKFGEYRCEKEDDLAELASQQYFVDYGSEMILERLLNLVPTYIPDREITPLKTLEKWAQLAIAAHKKGIYAQRRTDAQKVKEDVVSYARFKWPLLFSRFYEAYKFSGPSLPKNDVIVAVNWTGVYFVDEQEQVLLELSFPEIMAVSSSRECRVWLSLGCSDLGCAAPHSGWAGLTPAGPCSPCWSCRGAKTTAPSFTLATIKGDEYTFTSSNAEDIRDLVVTFLEGLRKRSKYVVALQDNPNPAGEESGFLSFAKGDLIILDHDTGEQVMNSGWANGINERTKQRGDFPTDCVYVMPTVTMPPREIVALVTMTPDQRQDVVRLLQLRTAEPEVRAKPYTLEEFSYDYFRPPPKHTLSRVMVSKARGKDRLWSHTREPLKQA” the protein production was “failed”.

With “MYLKRSDGPSPGTLSLAARLTVLSTLATTGVLLFAIVFQFLALVSDLEFEDNDFIIDKIRVIEAIIVRYPEDRVHLEQEVQWEGSMREDSRYLVRIADARKNIIMETRGMDRIAPPAMFPRPARDTHAIGRGKKLKTPEGRVYLVNAAWTDGGRAPDSRQIQVALDVTEEEEMLEGYKQKMAFVFLAGLFLSAGLNVVVVRRGLRPLVQLTETAGRIDVTTLHERIDARVWPRELARFAAAFDAMLTRLESSFERLESSSANLAHEIRTPLNILRGEAEVTLSRARSPEEYRRVIESSLEEYERLSRLIDNILFLARAEQRIEPVPLDAGHELELLQDYYGTLAEEKGIAISCTGEGTISADPLLFQRAVGNVLSNAIRYTPAGGTITVSIDRADDGAALLTVIDTGIGISADDLPRVFDRFYRSSEARTLNAQGTGLGLAIVRSIMELHRGSVTIDSAPGRGTAVTLRFPLASQ” the protein production was “failed”.

In the case of “MVFDAIVVTDLQGFIIDWNKGSETLYGYSKEQAIGQPVNMLHVPGDTEHITSEVISAVENQGKWTGEIRMLHKDGHIGWIESMCVPIYGENYQMVGALGINRDITKRKKELEHHHHHH”, the protein production is reported as “failed”.

With “MSNNSKISWTTTTWNVTAGCDPISDGCKNCYARMMAERLKAMGQAKYQNGFIPTIHSECLNEPFGWKGNKLVFVVSMGDLFHKDIPFDFIDKVIEVITKCPQHTFQILTKRAERMYEYFSTHAIPENVWLGVTVENQKVKGRIDYLKKLDAPVRFLSCEPLLEDLGTLDLSDIDWVIVGGESGNRARKVEKDWILNIKSQCDASTSTAFFFKQWGTWGADGVKRSAKENGCLLDGKEYHAYPTPRKIKPLEHHHHHH” the protein production was “not failed”.

Reference: a protein production outcome set (Wang et al. 2014)
